To fix the notation:
B1: Myeloid leukemia factor 1 (Homo sapiens), P58340 (parent)
chain: MFRMLNSSFEDDPFFSESILAHRENMRQMIRSFSEPFGRDLLSISDGRGRAHNRRGHNDGEDSLTHTDVSSFQTMDQMVSNMRNYMQKLERNFGQLSVDPNGHSFCSSSVMTYSKIGDEPPKVFQASTQTRRAPGGIKETRKAMRDSDSGLEKMAIGHHIHDRAHVIKKSKNKKTGDEEVNQEFINMNESDAHAFDEEWQSEVLKYKPGRHNLGNTRMRSVGHENPGSRELKRREKPQQSPAIEHGRRSNVLGDKLHIKGSSVKSNKK

Variants of B1 are the subject of the test. To be noted: with 1433e_human YWHAE.
As to MFRMLNSSFEDDPFFSESILAHRENMRQMIRSASEPFGRDLLSISDGRGRAHNRRGHNDGEDSLTHTDVSSFQTMDQMVSNMRNYMQKLERNFGQLSVDPNGHSFCSSSVMTYSKIGDEPPKVFQASTQTRRAPGGIKETRKAMRDSDSGLEKMAIGHHIHDRAHVIKKSKNKKTGDEEVNQEFINMNESDAHAFDEEWQSEVLKYKPGRHNLGNTRMRSVGHENPGSRELKRREKPQQSPAIEHGRRSNVLGDKLHIKGSSVKSNKK [F33A], the “effect of a mutation on the interaction” value was “decreasing interaction”.

For the origin of these results see IntAct's records for PubMed 22151054.
